Measured values from US6660837.

Tests used:
[1] = target: [γ-32P]GTP·GST-RhoA (human) (UniProt P61586); test: cell-based or functional assay
[2] = system: [Ser^46] PKN (39-53) peptide

Chain of [γ-32P]GTP·GST-RhoA (human) (P61586 whole entry): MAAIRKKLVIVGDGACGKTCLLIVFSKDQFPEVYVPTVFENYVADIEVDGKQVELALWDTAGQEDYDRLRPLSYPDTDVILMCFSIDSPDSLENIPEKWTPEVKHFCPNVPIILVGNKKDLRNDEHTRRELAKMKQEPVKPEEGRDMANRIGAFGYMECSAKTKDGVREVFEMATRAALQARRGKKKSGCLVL

Substance | half life of GTP bound to RhoA (endogenous GTPase activity) [1] | Km (phosphorylation of the peptide by PKN) [2]
GST-PKN (N-terminal region of human PKN, amino acid sequence 1-538, fused to GST) (from UniProt Q16512 1-538) | > 15 min | –
PKN purified from rat testis cytosol | – | a Km of approximately 25 µM
